Assay results from the supplement of paper PMC7125110.
± gives the standard error. For part of these data: This sample holds only a part of the variants without activity.

B1: glmS ribozyme (parent)
chain: AUAAAAGCGCCAGAACUACAGAAAUGUAGUUGACGAGGAGGAGGUUUAUCGAAUUUUCGGCGGAUGCCUCCAAA

Experiments:
Settings in all cases: with glucosamine-6-phosphate
glucosamine-6-phosphate [1] = variants of: B1; assay: kcat; higher = faster cleavage; RNA array
Method in brief: (§1)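 On sequenced MiSeq chips, barcoded ribozyme variants were made in situ by E. coli RNA polymerase and followed at 37 °C through a hybridised Cy3 probe. Glucosamine-6-phosphate was flowed in at 40 μM to 10 mM in HEPES/KCl/Mg(OAc)2 buffer. Exponential fits to normalised per-tile medians gave kobs, and weighted Michaelis–Menten fits gave kcat and KM.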

glucosamine-6-phosphate [2] = variants of: B1; assay: self-cleavage kobs at 40 uM GlcN6P; higher = faster cleavage; RNA array
Method in brief: as §1

glucosamine-6-phosphate [3] = variants of: B1; assay: self-cleavage kobs at 160 uM GlcN6P; higher = faster cleavage; RNA array
Method in brief: as §1

glucosamine-6-phosphate [4] = variants of: B1; assay: self-cleavage kobs at 640 uM GlcN6P; higher = faster cleavage; RNA array
Method in brief: as §1

glucosamine-6-phosphate [5] = variants of: B1; assay: self-cleavage kobs at 2500 uM GlcN6P; higher = faster cleavage; RNA array
Method in brief: as §1

glucosamine-6-phosphate [6] = variants of: B1; assay: self-cleavage kobs at 10000 uM GlcN6P; higher = faster cleavage; RNA array
Method in brief: as §1

glucosamine-6-phosphate [7] = variants of: B1; assay: KM; higher = weaker cofactor use; RNA array
Method in brief: as §1

Variant | kcat (glucosamine-6-phosphate [1]) [s⁻¹] | self-cleavage kobs at 40 uM GlcN6P (glucosamine-6-phosphate [2]) [s⁻¹] | self-cleavage kobs at 160 uM GlcN6P (glucosamine-6-phosphate [3]) [s⁻¹] | self-cleavage kobs at 640 uM GlcN6P (glucosamine-6-phosphate [4]) [s⁻¹] | self-cleavage kobs at 2500 uM GlcN6P (glucosamine-6-phosphate [5]) [s⁻¹] | self-cleavage kobs at 10000 uM GlcN6P (glucosamine-6-phosphate [6]) [s⁻¹] | KM (glucosamine-6-phosphate [7]) [µM]
G44A C67A | 0.0103 ± 0.0048 | 0.00024 ± 4e-05 | 0.000422 ± 0.00011 | 0.00141 ± 0.00018 | 0.00541 ± 0.00076 | 0.00737 ± 0.0013 | 
G43A U46A | 1.87e-05 ± 2.1e-06 | < 1e-05 |  |  |  |  | 
U46C C70A | 0.000216 ± 5.4e-05 |  | 5.11e-05 ± 2.3e-05 | 0.000105 ± 1.7e-05 | 0.000151 ± 2.5e-05 | 0.000347 ± 8.7e-05 | 
U45A A52C | 6.93e-05 ± 3e-05 |  | < 1e-05 |  | 0.000121 ± 3.4e-05 | 5.55e-05 ± 1.5e-05 | 
U46G A53C | 0.00122 ± 6.4e-05 |  | 5.96e-05 ± 1.8e-05 | 0.000231 ± 4.3e-05 | 0.000609 ± 9.9e-05 | 0.000938 ± 0.00012 | 2790 ± 250
G43U U45G | 0.00603 ± 0.00084 | 0.00013 ± 1.9e-05 | 0.000412 ± 0.00012 | 0.00124 ± 0.00027 | 0.00422 ± 0.0011 | 0.005 ± 0.00078 | 1980 ± 380
U46G U56G | 0.00393 ± 0.00066 | 8.55e-05 ± 1.5e-05 | 0.000353 ± 0.00012 | 0.00128 ± 0.00033 | 0.00271 ± 0.00083 | 0.0029 ± 0.001 | 1690 ± 350
U46G U56C | 0.00203 ± 0.0005 |  | 4.23e-05 ± 2.1e-05 |  | 0.000799 ± 0.00013 | 0.00131 ± 0.00016 | 4990 ± 2300
U45A A48G | 0.000299 ± 7.2e-05 |  |  | 8.14e-05 ± 1.3e-05 | 0.00033 ± 4.4e-05 | 0.00024 ± 2.6e-05 | 
A42U C70G | 2.5e-05 ± 2e-06 |  |  |  |  | 2.35e-05 ± 9.3e-06 | 979 ± 380
A42U C70U | 0.000154 ± 2e-05 |  |  | 3.64e-05 ± 7.2e-06 | 0.000112 ± 1.2e-05 | 0.000126 ± 1.2e-05 | 1640 ± 560
U45A U47C | 0.00985 ± 0.0035 | 0.00017 ± 4.6e-05 |  | 0.00165 ± 0.00043 | 0.0091 ± 0.0044 | 0.00776 ± 0.0024 | 2660 ± 1300
G43U C67U C68U | 4.99e-05 ± 2e-05 |  |  |  | 7.28e-05 ± 2.2e-05 | 3.53e-05 ± 1.7e-05 | 
G43A U45G | 0.0116 ± 0.0056 | 0.000563 ± 0.0001 | 0.000816 ± 0.00022 | 0.00306 ± 0.00054 | 0.00969 ± 0.0023 | 0.00965 ± 0.0026 | 
U46A U56G | 0.00195 ± 0.00071 |  | 9.87e-05 ± 1.5e-05 | 0.000283 ± 6.8e-05 | 0.000603 ± 0.00011 | 0.00183 ± 0.00029 | 
A42U U54C | 0.00019 ± 4.1e-05 |  |  | 6.5e-05 ± 1.1e-05 | 0.00024 ± 3.8e-05 | 0.000159 ± 1.7e-05 | 
A42U U54A | 0.000282 ± 2.2e-05 |  |  | 6.94e-05 ± 9.8e-06 | 0.000177 ± 2e-05 | 0.000231 ± 2e-05 | 1890 ± 340
A42U U54G | 0.000246 ± 1e-05 |  |  | 0.000117 ± 2e-05 | 0.000201 ± 3.1e-05 | 0.000226 ± 2.1e-05 | 736 ± 110
A42U A64G | 0.000148 ± 1.7e-05 |  |  | 3.08e-05 ± 7.7e-06 | 0.000102 ± 1.3e-05 | 0.00012 ± 1.1e-05 | 1930 ± 650
G44C C67G | 0.0216 ± 0.0034 | 0.000211 ± 4.8e-05 | 0.000995 ± 0.00033 | 0.00316 ± 0.00083 | 0.00752 ± 0.0019 | 0.0168 ± 0.0047 | 3930 ± 790
U45G A52G | 0.000403 ± 0.0001 |  |  | 8.01e-05 ± 1.6e-05 | 0.000142 ± 3.2e-05 | 0.000345 ± 6e-05 | 3100 ± 1400
A42U C71A | 0.000146 ± 7.1e-05 |  |  |  | 3.16e-05 ± 8.6e-06 | 8.25e-05 ± 2.2e-05 | 
U46G C70G | 0.00028 ± 2.1e-05 | 4.54e-05 ± 1.1e-05 | 0.000122 ± 1.7e-05 | 0.000265 ± 3.3e-05 | 0.000263 ± 3.4e-05 | 0.000258 ± 2.6e-05 | 192 ± 44
U45A C67U | 0.0622 ± 0.028 | 0.00106 ± 0.00014 | 0.00246 ± 0.00047 | 0.0118 ± 0.0023 | 0.033 ± 0.01 | 0.0465 ± 0.014 | 
G43A C71U | < 1e-05 | < 1e-05 |  |  |  |  | 
U46A U54A | 0.00331 ± 0.00047 | 0.000104 ± 1.9e-05 | 0.000321 ± 8.4e-05 | 0.000932 ± 0.00035 | 0.00181 ± 0.00029 | 0.00334 ± 0.00047 | 1420 ± 350
U46A U54C | 0.00402 ± 0.0012 | 4.31e-05 ± 1.1e-05 | 0.000153 ± 3.9e-05 | 0.000982 ± 0.00017 | 0.00157 ± 0.00051 | 0.00295 ± 0.00051 | 3310 ± 1300
U46G U55C | 0.0109 ± 0.0051 | 0.000264 ± 3.5e-05 | 0.000497 ± 5.4e-05 | 0.00171 ± 0.00029 | 0.00371 ± 0.00062 | 0.0103 ± 0.0013 | 
U46G U55G | 0.00623 ± 0.0016 | 0.000153 ± 2.1e-05 | 0.000395 ± 8.6e-05 | 0.00125 ± 0.00021 | 0.00414 ± 0.001 | 0.00533 ± 0.00091 | 2040 ± 690
